We go through 1 molecule from patent publication US20230104705A1 (CELLULAR BIOMEDICINE GROUP HK, published 2023).

One assay has as its target T1, CD19 (UniProt P15391 20-556).
T1 construct: whole, on cells; also called CD19 on A549-CD19, A549-CD19-CD20, K562-CD19+, K562-CD19+CD20+ and Raji cells
T1 sequence (looked up): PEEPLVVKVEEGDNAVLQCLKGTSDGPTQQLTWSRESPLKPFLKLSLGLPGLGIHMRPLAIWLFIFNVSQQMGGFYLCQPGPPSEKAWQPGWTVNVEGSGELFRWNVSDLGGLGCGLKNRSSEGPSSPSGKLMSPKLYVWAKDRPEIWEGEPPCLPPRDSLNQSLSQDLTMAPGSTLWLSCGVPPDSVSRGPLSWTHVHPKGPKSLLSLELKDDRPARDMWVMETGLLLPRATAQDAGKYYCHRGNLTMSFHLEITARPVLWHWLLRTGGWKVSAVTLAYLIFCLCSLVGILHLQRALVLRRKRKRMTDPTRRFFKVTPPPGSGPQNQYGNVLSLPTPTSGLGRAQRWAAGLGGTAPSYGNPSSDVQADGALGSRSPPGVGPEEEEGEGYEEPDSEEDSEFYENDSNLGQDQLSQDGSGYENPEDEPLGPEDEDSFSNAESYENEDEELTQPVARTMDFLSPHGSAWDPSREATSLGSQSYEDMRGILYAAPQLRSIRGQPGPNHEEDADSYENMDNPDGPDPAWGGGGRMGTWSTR
The assay is described as follows: flow cytometry on A549-CD19, A549-CD19-CD20 and Raji cells, 20 µg/mL. An excerpt:
(§1) To examine the affinity and specificity of the bi-specific scFv in TN-OF 19 CAR, a chimeric rabbit monoclonal antibody was generated by linking the CD20 scFv, derived from the Ofatumumab mAb and the CD19 scFv, derived from the FMC63 mAb in frame with a rabbit IgG1 Fc region. CD19 and CD20 scFvs were alternatively linked by a G4S linker. The molecular order is OF VL-VH-G4S-FMC63 VH-VL, which is the same as scFVs in TN-OF-19. The chimeric antibody was expressed in 293T cells after transient transfection. Validation of this chimeric antibody for specificity of staining was performed by flow cytometry. Briefly, three stable cell lines (A549-CD19, A549-CD20, A549-CD19-CD20) were used as targets, and CD19-CD20-A549 cells and CD19+CD20+ Raji cells were used as control. All cells were washed and resuspended, blocking by 2% serum for 30 minutes. 5×10⁵ cells were transferred to FACS vials, washed and stained with recombinant antibodies (final concentration 20 μg/mL) for 1 h at 4° C. After washing, the secondary antibody (goat anti-rabbit IgG) was added for 30 minutes in dark at 4° C. Finally, cells were washed and resuspended in 200 μL FACS buffer for FACS analysis.

A further assay concerns the target T2, CD20 (UniProt P11836 1-297).
T2 construct: whole, on cells; also called B1; CD20 on A549-CD20, A549-CD19-CD20, K562-CD20+, K562-CD19+CD20+, Raji and Ramos cells
T2 sequence (looked up): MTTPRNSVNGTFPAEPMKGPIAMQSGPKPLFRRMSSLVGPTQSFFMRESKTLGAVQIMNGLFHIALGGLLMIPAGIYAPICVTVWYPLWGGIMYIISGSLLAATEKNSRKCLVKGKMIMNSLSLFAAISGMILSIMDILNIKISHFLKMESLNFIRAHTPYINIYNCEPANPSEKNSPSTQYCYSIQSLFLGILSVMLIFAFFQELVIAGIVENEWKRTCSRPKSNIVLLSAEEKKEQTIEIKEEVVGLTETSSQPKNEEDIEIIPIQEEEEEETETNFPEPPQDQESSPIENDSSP
The assay is described as follows: flow cytometry on A549-CD20, A549-CD19-CD20 and Raji cells, 20 µg/mL.
Text: as §1

B1: chimeric rabbit monoclonal antibody (CD20 scFv derived from the Ofatumumab mAb and CD19 scFv derived from the FMC63 mAb, in frame with a rabbit IgG1 Fc region; … (bispecific antibody)
chain: EIVLTQSPATLSLSPGERATLSCRASQSVSSYLAWYQQKPGQAPRLLIYDASNRATGIPARFSGSGSGTDFTLTISSLEPEDFAVYYCQQRSNWPITFGQGTRLEIKGSTSGGGSGGGSGGGGSSEVQLVESGGGLVQPGRSLRLSCAASGFTFNDYAMHWVRQAPGKGLEWVSTISWNSGSIGYADSVKGRFTISRDNAKKSLYLQMNSLRAEDTALYYCAKDIQYGNYYYGMDVWGQGTTVTVSSGGGGSEVKLQESGPGLVAPSQSLSVTCTVSGVSLPDYGVSWIRQPPRKGLEWLGVIWGSETTYYNSALKSRLTIIKDNSKSQVFLKMNSLQTDDTAIYYCAKHYYYGGSYAMDYWGQGTSVTVSSGSTSGSGKPGSGEGSTKGDIQMTQTTSSLSASLGDRVTISCRASQDISKYLNWYQQKPDGTVKLLIYHTSRLHSGVPSRFSGSGSGTDYSLTISNLEQEDIATYFCQQGNTLPYTFGGGTKLEIT
notes: Expressed in 293T cells after transient transfection; also called chimeric antibody; recombinant antibodies; not shown: rabbit IgG1 Fc region
Consider B1, for which the binding result in the assay with CD19 and with CD20 was “binds” throughout.
